Consider two molecules from publication PMC4364042 (Science (New York, N.Y.), 2014).

The term Kd denotes a measure of binding affinity in units of concentration.

Experiment [1] deals with E-cadherin/β-catenin complex (Mus musculus) (UniProt P09803). To be noted: cited from earlier work.
A further experiment deals with T1, Dr αE-catenin (Danio rerio (zebrafish), UniProt Q9PVF8 1-907).
T1 sequence (looked up): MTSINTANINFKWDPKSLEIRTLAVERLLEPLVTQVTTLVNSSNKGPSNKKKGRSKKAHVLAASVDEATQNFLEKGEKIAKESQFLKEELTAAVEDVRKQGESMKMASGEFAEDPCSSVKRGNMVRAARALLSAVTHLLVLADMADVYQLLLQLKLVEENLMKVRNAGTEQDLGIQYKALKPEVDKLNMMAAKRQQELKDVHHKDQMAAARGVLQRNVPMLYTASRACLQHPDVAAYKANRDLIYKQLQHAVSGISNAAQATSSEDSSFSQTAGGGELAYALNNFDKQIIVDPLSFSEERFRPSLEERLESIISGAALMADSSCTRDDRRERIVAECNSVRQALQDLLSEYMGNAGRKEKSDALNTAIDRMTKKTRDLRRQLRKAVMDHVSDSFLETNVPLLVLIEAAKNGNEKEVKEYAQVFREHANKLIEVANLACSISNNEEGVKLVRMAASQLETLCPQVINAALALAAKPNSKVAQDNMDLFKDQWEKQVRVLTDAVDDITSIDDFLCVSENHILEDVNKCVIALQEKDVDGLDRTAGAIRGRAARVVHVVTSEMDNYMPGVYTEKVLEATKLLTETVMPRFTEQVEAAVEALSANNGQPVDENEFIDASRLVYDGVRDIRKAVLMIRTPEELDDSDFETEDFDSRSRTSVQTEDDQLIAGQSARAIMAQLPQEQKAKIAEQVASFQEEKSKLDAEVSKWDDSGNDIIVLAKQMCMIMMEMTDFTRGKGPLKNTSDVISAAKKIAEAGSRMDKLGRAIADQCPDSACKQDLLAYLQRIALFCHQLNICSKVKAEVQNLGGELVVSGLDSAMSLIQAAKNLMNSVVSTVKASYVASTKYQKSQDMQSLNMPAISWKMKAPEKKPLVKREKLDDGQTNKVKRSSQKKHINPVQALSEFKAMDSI
As to the kind of experiment: reconstitution of the complex on the coverslip, read by optical trap.

Sequence of E-cadherin/β-catenin complex (Mus musculus) (P09803 157-884, chain 1 of 2): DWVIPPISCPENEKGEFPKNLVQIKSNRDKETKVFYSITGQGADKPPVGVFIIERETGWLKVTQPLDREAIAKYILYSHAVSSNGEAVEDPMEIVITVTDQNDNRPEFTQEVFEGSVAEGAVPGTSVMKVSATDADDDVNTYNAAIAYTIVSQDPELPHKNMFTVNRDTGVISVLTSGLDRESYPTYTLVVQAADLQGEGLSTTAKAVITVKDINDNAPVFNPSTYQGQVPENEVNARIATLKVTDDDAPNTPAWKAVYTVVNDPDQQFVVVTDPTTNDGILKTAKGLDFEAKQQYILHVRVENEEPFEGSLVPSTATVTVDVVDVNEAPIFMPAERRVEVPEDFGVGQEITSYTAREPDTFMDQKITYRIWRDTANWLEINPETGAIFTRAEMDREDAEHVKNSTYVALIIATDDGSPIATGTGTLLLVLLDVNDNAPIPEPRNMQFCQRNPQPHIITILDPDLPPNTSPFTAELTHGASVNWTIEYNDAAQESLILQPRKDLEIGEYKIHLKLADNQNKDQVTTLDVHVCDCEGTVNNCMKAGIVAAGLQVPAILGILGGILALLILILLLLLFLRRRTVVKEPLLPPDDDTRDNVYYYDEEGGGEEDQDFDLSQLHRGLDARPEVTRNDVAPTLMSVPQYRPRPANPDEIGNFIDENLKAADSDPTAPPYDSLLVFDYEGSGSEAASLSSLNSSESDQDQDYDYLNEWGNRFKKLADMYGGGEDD
Sequence of E-cadherin/β-catenin complex (Mus musculus) (Q02248 2-781, chain 2 of 2, further chain): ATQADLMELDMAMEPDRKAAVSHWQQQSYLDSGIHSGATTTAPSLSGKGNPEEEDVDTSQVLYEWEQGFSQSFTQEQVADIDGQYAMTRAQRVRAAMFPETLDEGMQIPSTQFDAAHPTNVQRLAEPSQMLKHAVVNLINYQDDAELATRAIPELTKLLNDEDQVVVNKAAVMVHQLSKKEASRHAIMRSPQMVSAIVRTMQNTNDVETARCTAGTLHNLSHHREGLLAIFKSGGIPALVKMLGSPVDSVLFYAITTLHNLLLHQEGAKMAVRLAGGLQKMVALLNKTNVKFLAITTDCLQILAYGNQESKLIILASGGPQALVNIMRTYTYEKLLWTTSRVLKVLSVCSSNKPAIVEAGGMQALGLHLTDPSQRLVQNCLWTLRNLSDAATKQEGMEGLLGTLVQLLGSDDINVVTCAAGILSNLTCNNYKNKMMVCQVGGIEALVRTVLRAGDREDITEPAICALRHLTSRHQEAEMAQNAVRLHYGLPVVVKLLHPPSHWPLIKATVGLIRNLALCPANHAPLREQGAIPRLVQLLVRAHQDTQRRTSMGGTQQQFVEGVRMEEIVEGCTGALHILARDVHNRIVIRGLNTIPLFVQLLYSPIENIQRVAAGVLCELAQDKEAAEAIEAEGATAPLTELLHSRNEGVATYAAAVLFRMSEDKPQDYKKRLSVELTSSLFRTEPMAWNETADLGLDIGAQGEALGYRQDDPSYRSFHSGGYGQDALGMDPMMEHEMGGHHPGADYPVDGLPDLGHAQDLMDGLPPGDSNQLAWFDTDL

αE-catenin (from UniProt P26231): in experiment [1], the Kd is 1 nM.

B1: Dr β-catenin (natural protein, Danio rerio (zebrafish), UniProt F1QGH7 1-780, looked up)
chain: MATQSDLMELEMAMDPDRKAAVSHWQQQSYLDSGIHSGATTTAPSLSGKGNPEDDDVDNQVLYEWEQGFNQSFNQEQVADIDGQYAMTRAQRVRAAMFPETLDEGMQIPSTQFDSAHPTNVQRLAEPSQMLKHAVVNLINYQDDAELATRAIPELTKLLNDEDQVVVNKAAVMVHQLSKKEASRHAIMRSPQMVSAIVRTMQNTNDVETARCTSGTLHNLSHHREGLLAIFKSGGIPALVKMLGSPVDSVLFYAITTLHNLLLHQEGAKMAVRLAGGLQKMVALLNKTNVKFLAITTDCLQILAYGNQESKLIILASGGPQALVNIMRTYTYEKLLWTTSRVLKVLSVCSSNKPAIVEAGGMQALGLHLTDPSQRLVQNCLWTLRNLSDAATKQEGMEGLLGTLVQLLGSDDINVVTCAAGILSNLTCNNYKNKMMVCQVGGIEALVRTVLRAGDREDITEPAICALRHLTSRHQDAEMAQNAVRLHYGLPVVVKLLHPPSHWPLIKATVGLIRNLALCPANHAPLREQGAIPRLVQLLVRAHQDTQRRTSMGGTQQQFVEGVRMEEIVEGCTGALHILARDIHNRIVIRGLNTIPLFVQLLYSPIENIQRVAAGVLCELAQDKEAAEAIEAEGATAPLTELLHSRNEGVATYAAAVLFRMSEDKPQDYKKRLSVELTSSLFRTEPMTWNETGDLGLDIGAQGEPLGYRQDDPSYRSFHSGGYGQDAMGMDPMMEHEMAGHHPGPDYPVDGLPDLGHTQDLIDGLPPGDSNQLAWFDTDL
Take B1: in the experiment with Dr αE-catenin, the binding result is recorded as “binds”.
